Data as given in patent US20220153832A1 (PIONYR IMMUNOTHERAPEUTICS, published 2022).

T1: N-terminal his-tagged mouse MARCO protein, recombinant (mouse, UniProt Q60754 150-518)
T1 construct: The entry holds the His tag, the CLD and the SRCR domain; also called mMARCO (RG3016); PI-RG-3016
T1 sequence: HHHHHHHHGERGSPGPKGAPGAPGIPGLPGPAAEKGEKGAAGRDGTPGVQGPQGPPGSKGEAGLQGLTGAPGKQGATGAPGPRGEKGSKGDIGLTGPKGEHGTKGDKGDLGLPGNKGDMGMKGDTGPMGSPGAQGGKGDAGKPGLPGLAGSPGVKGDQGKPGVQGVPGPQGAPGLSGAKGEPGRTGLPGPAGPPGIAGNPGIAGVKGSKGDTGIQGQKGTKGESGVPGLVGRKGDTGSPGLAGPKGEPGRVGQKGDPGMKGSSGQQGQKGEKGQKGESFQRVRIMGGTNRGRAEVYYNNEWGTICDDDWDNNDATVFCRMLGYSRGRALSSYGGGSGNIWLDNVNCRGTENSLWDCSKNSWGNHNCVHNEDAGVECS

T2: Cynomolgus MARCO, full length, on cells (cynomolgus, UniProt A0A2K5X0Z2 1-519)
T2 construct: whole, on cells; also called cyno MARCO; CyMARCO
T2 sequence: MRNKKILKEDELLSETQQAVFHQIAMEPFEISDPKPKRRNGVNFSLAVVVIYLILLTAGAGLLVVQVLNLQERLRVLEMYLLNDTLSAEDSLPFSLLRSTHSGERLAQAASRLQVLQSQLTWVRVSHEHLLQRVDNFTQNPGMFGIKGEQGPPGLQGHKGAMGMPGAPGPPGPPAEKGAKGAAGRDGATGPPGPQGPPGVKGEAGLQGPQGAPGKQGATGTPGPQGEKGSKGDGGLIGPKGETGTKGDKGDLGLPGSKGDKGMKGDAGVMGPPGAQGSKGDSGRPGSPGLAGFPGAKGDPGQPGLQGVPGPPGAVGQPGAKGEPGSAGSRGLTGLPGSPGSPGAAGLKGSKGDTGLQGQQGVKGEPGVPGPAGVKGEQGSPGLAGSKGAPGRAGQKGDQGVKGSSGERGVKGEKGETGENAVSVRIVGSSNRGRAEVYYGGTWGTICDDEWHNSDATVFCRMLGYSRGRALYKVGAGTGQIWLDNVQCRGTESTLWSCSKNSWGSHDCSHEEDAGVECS

T3: N-terminally polyhistidine tagged human MARCO ECD (147-520), recombinant (human, UniProt Q9UEW3 147-520)
T3 construct: also called PI-RG-3000; recombinant human MARCO; not shown: N-terminal polyhistidine tag
T3 sequence: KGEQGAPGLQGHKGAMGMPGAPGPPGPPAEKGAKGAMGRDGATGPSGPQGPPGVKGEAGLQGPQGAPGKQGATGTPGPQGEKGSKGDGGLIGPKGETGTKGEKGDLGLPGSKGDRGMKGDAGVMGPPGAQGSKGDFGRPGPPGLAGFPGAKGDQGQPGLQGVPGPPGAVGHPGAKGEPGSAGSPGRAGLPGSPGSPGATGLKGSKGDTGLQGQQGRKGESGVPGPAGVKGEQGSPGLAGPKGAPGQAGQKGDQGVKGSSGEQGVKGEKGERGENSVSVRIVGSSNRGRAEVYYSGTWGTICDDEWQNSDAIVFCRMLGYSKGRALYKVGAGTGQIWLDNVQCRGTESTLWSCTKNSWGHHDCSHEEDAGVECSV


Key:
[1] = molecular target: T1, N-terminal his-tagged mouse MARCO …; test: Biacore; antigen construct not stated
[2] = molecular target: T2, Cynomolgus MARCO, full length, on cells; test: flow cytometry, 293T CyMARCO cells
Summary of the method: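 Geometric mean fluorescence intensity from flow cytometry, analysed in FlowJo and Prism, served as the readout of binding to HEK293T cells carrying human or cynomolgus MARCO. Cells were stained with Zombie NIR for viability and plated at 100,000 cells/well. An 8-point three-fold antibody dilution from 100 nM in D-PBS/2% FBS/2 mM EDTA was applied for 1 hr on ice, followed by APC goat anti-mouse IgG for 30 min on ice, with acquisition on an Attune NxT.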

[3] = molecular target: T3, N-terminally polyhistidine tagged human …; test: ELISA on recombinant human MARCO, 0 mM EDTA
Description: After the plates were incubated at room temperature for 1 hour or 4° C. overnight, the plates were wash 3 times with ELISA wash buffer (PBS/0.05% TWEEN-20), then hybridoma supernatant (1:5 dilution) or purified antibody (1 ug) was diluted in DPBS/Ca2+/2% FBS, DPBS without Ca2+/2 mM EDTA/2% FBS, DPBS without Ca2+/10 mM EDTA/2% FBS, and DPBS without Ca2+/50 mM EDTA/2% FBS. Plates again were incubated at room temperature for 1 hour.

Binder | koff [1] [s⁻¹] | kon [1] [M⁻¹ s⁻¹] | binding result [2] | ELISA signal (A450) [3]
PI-HX-3021 (antibody, V domains shown, Rat IgG2a hybridoma antibody; Not the effector dead PI-3021; also called PI-3007 (name of the recombinant form)) VH: QVRLVQSGTALVRPGASVRMSCTASGYSFTDYWVSWVKQSHGQSLEWIGEIYPNSGTTNFNEKFEGKATLTVDKSTSTAYMELSRLTSEDSAIYYCTGEGTFDYWGQGVMVTVSS VL: EIVLTQSPTTMAASPGEKVTITCRPSSSLSNMHWFQQKSGTSPKPWIYDTSKLASGVPDRFSGSGSGTSYSLTISSMEAEDAATYYCLQRSSYPPTFGAGTKLELK | 2.11e-05 | 191000 | no binding | 
PI-HX-3016 (antibody, rat IgG1, V domains shown, Rat IgG1 hybridoma antibody) VH: EVQLVESGGGLVKPGASLKLSCVASGFTFSDDWMNWVRQTPGKAMEWIGDIKYDGSYTNYVPSLKNRLTISRDNAKNTLYLQMTNVRSEDTATYYCTSGGVFDYWGQGVMVTVSS VL: EIVLSQSPTTMAASPGEKVTITCRASSSVSYMHWFQQKSGTSPKPWIYDTSKLASGVPDRFSGSGSGTSYSLTISSMEAEDAATYYCLQRSGYPPTFGAGTKLEVK | 1.27e-06 | 184000 | no binding | 
PI-HX-3031 (antibody, Parental rat hybridoma, rat IgG2a) heavy: QVQLKESGPGLVQPSQTLSLTCTVSGFSLTSYHVSWVRQPPGKGLEWMGAIWTGGSIAYNSLLKSRLSISRDTSKSQVFLKMNSLQTEDTATYYCARDLSDYYSSYTSFDYWGQGVMVTVSTAETTAPSVYPLAPGTALKSNSMVTLGCLVKGYFPEPVTVTWNSGALSSGVHTFPAVLQSGLYTLTSSVTVPSSTWSSQAVTCNVAHPASSTKVDKKIVPRECNPCGCTGSEVSSVFIFPPKTKDVLTITLTPKVTCVVVDISQNDPEVRFSWFIDDVEVHTAQTHAPEKQSNSTLRSVSELPIVHRDWLNGKTFKCKVNSGAFPAPIEKSISKPEGTPRGPQVYTMAPPKEEMTQSQVSITCMVKGFYPPDIYTEWKMNGQPQENYKNTPPTMDTDGSYFLYSKLNVKKETWQQGNTFTCSVLHEGLHNHHTEKSLSHSP light: DIQMTQSPASLSTSLGETVSIECLASEGISNDLAWYQQKSGKSPQLLIYAASRLQDGVPSRFSGSGSGTRYSLKISGMQPEDEADYFCQQSYKYPLTFGSGTKLEIKRADAAPTVSIFPPSTEQLATGGASVVCLMNNFYPRDISVKWKIDGTERRDGVLDSVTDQDSKDSTYSMSSTLSLTKADYESHNLYTCEVVHKTSSSPVVKSFNRNEC |  |  |  | 1.37
PI-HX-3043 (antibody, rat IgG2a, Parental rat hybridoma, rat IgG2a) heavy: QVNLLQSRAALVKPGASVKLSCKASGYTFTDYYLHWVKQSHAKSLEWIGYINPNNAYTSYNEKFKSKATLTVDKSTNTAYMELSRLTSADSATYYCARDTTDYYNLHFAYWGQGTLVTVSSAETTAPSVYPLAPGTALKSNSMVTLGCLVKGYFPEPVTVTWNSGALSSGVHTFPAVLQSGLYTLTSSVTVPSSTWSSQAVTCNVAHPASSTKVDKKIVPRECNPCGCTGSEVSSVFIFPPKTKDVLTITLTPKVTCVVVDISQNDPEVRFSWFIDDVEVHTAQTHAPEKQSNSTLRSVSELPIVHRDWLNGKTFKCKVNSGAFPAPIEKSISKPEGTPRGPQVYTMAPPKEEMTQSQVSITCMVKGFYPPDIYTEWKMNGQPQENYKNTPPTMDTDGSYFLYSKLNVKKETWQQGNTFTCSVLHEGLHNHHTEKSLSHSP light: DIQMTQSPASLSASLGETVSIECLTSEGISNDLAWYQQKSGKSPQLLIYDASRLEDGVPSRFSGSGSGTRYSLKISGMQTEDEADYFCQQSYKYPLTFGSGTKLEIKRADAAPTVSIFPPSTEQLATGGASVVCLMNNFYPRDISVKWKIDGTERRDGVLDSVTDQDSKDSTYSMSSTLSLTKADYESHNLYTCEVVHKTSSSPVVKSFNRNEC |  |  |  | 1.2
